Experimental data from the Human Domainome abundance scans (Beltran et al. 2025).
± gives the uncertainty stated by the source.

B1: CD2-associated protein, residues 109 to 169; numbered along this chain, Q9Y5K6 (parent)
chain: KKRQCKVLFEYIPQNEDELELKVGDIIDINEEVEEGWWSGTLNNKLGLFPSNFVKELEVTD

Variants of: B1
Assay: abundance fitness (aPCA) (normalised: wild type 0, dead -1); higher = more abundant; growth selection in yeast, the domain comes from the species named
Conditions: Homo sapiens

Variant	abundance fitness
KKRQCKVLFEYIPQNEDELELKVGDIILINEEVEEGWWSGTLNNKLGLFPSNFVKELEVTD [D28L]	-0.4 ± 0.12
KKRQCKVLFEYIPQNEDELELKVGDIIDINEEVEEGWWSGILNNKLGLFPSNFVKELEVTD [T41I]	-0.246 ± 0.19
KKRQCKVLFEYIPQNEDELELKVGDIIDINEEVEEGWWSGELNNKLGLFPSNFVKELEVTD [T41E]	-0.05 ± 0.17
KKRQCKVLFEYIPQNEDELELKVGDIIDINEEVEEGWWSGTLNNCLGLFPSNFVKELEVTD [K45C]	-0.065 ± 0.17
KKRQCCVLFEYIPQNEDELELKVGDIIDINEEVEEGWWSGTLNNKLGLFPSNFVKELEVTD [K6C]	0.088 ± 0.052
KKRQCKVLFEYIPQNEDELELKVGDIIDINEEVEEGWWSGTLNNKLGLFPSNFVKELERTD [V59R]	-0.131 ± 0.078
KKRQCKVLFEYIPQNEDELELKVGDIIDINEEVEEGWWSGTLNNKLGLFPSNFVKPLEVTD [E56P]	-0.224 ± 0.1
KKRQCKVLFEYIPQNEDELELKVGDIIDINEEVEEGWWSGTLNNKYGLFPSNFVKELEVTD [L46Y]	0.011 ± 0.049
KKRQCKVLFEYIPQNEDELELKVGDIIDINEEVEEGWWSGTQNNKLGLFPSNFVKELEVTD [L42Q]	-0.432 ± 0.4
IKRQCKVLFEYIPQNEDELELKVGDIIDINEEVEEGWWSGTLNNKLGLFPSNFVKELEVTD [K1I]	-0.241 ± 0.4
KKRQCKVLFEYIPQNEDELELKVGDIIDINEEVEEGWRSGTLNNKLGLFPSNFVKELEVTD [W38R]	-0.586 ± 0.11
KKRQCKVLFEYIPQNEDELELKVGDIIDINEEVEEGWWSGTKNNKLGLFPSNFVKELEVTD [L42K]	-0.317 ± 0.12
KKRQCKVLFEYIPQNEDELELKVGDIIDINETVEEGWWSGTLNNKLGLFPSNFVKELEVTD [E32T]	-0.094 ± 0.18
KKRQCKVLFEYIPQNEDELELKVGDIIDINEEVEEGWWSGTLNNKLGLFPSWFVKELEVTD [N52W]	-0.454 ± 0.12
KKRQCKVLFEYIPQNEDELELKVGDIIDINEEVEEGWWSGTLNNKLGLFPSNFVKELEYTD [V59Y]	0.036 ± 0.19
KKRQCKVLFEYIPQNEDELELKVGDIIDINFEVEEGWWSGTLNNKLGLFPSNFVKELEVTD [E31F]	-0.584 ± 0.49
KKRQCKVLFEYIPQNEDELELKVGDIIDINEEVEEGWWPGTLNNKLGLFPSNFVKELEVTD [S39P]	-1.1 ± 0.33
KKHQCKVLFEYIPQNEDELELKVGDIIDINEEVEEGWWSGTLNNKLGLFPSNFVKELEVTD [R3H]	-0.122 ± 0.099
KKRQCKVLFEYIPQNEDELELKVGDIIDINEEVEEGWWSTTLNNKLGLFPSNFVKELEVTD [G40T]	-1.02 ± 0.5
KKRQCKVLFEYIPQNEDELELKVGDIIDINEEVEEGWWSGTLNNKLGWFPSNFVKELEVTD [L48W]	-0.201 ± 0.1
KKRQCKVLFEYIPQNEDELELKVGDIIDINEEVEEGWWSGTLNNKLGLFPSNFVKELEKTD [V59K]	-0.283 ± 0.27
KKRQCKVLFEYILQNEDELELKVGDIIDINEEVEEGWWSGTLNNKLGLFPSNFVKELEVTD [P13L]	-0.903 ± 0.34

Variant	abundance fitness
KKRQCKVLFEYIPQNEDELELKVGDIIDINEEVEEGWWSGTLNNKLGLFPSLFVKELEVTD [N52L]	-0.287 ± 0.096
KKRQCKVLFEYIPQNEDELELKVGDIIDINEEVEEGWWSGTLNLKLGLFPSNFVKELEVTD [N44L]	-0.489 ± 0.14
KKRQCKVLFEYIPQNEDELELKVGDRIDINEEVEEGWWSGTLNNKLGLFPSNFVKELEVTD [I26R]	-0.813 ± 0.14
KKRQCKVLFEYIPQNEDELELKVGDIIDINEEVEEGWWSGTLNNKLGLFPSNFVMELEVTD [K55M]	0.009 ± 0.091
KKRQCKVLFEYIPQNEDELELKVGDIIDINEEVIEGWWSGTLNNKLGLFPSNFVKELEVTD [E34I]	-0.247 ± 0.21
KKRQHKVLFEYIPQNEDELELKVGDIIDINEEVEEGWWSGTLNNKLGLFPSNFVKELEVTD [C5H]	-1.01 ± 0.21
KKRQCKVLFEYIPQWEDELELKVGDIIDINEEVEEGWWSGTLNNKLGLFPSNFVKELEVTD [N15W]	-0.483 ± 0.15
KKRQCKVLFEYIPQNEDELELKVGDIIDINEEVEEGWWSGTSNNKLGLFPSNFVKELEVTD [L42S]	0.042 ± 0.1
KKRQCKVLFGYIPQNEDELELKVGDIIDINEEVEEGWWSGTLNNKLGLFPSNFVKELEVTD [E10G]	-0.153 ± 0.091
KKRQCKVLFEYIPQNEDELELKVGDIIDINEEVEEGWWSGTLNNKMGLFPSNFVKELEVTD [L46M]	0.006 ± 0.1
KKRQCKVLFEYIPQNEDELELKVGDIIDINEEVEEGWWSGTLNNKLGLFPSNFVKEFEVTD [L57F]	-0.148 ± 0.13
KKRQCKVLFEYIPQNEDELELKVGDIYDINEEVEEGWWSGTLNNKLGLFPSNFVKELEVTD [I27Y]	-0.684 ± 0.49
KKRQCKVEFEYIPQNEDELELKVGDIIDINEEVEEGWWSGTLNNKLGLFPSNFVKELEVTD [L8E]	-0.088 ± 0.18
KKRQCKVLFEYIPQNQDELELKVGDIIDINEEVEEGWWSGTLNNKLGLFPSNFVKELEVTD [E16Q]	-0.007 ± 0.27
KKRQCKVLFEYIPQNEDELELKVGDIIDINEEVEEGWWSGTLNNKLGLFPSNFVKWLEVTD [E56W]	-0.769 ± 0.19
KKRQCKVLFEYIPQNEDELELKVGDIIDINEEVEEGWWSGTLNNELGLFPSNFVKELEVTD [K45E]	-0.453 ± 0.18
KKRQCKVLFEYIPQNEDELELKVGDEIDINEEVEEGWWSGTLNNKLGLFPSNFVKELEVTD [I26E]	-0.484 ± 0.2
CKRQCKVLFEYIPQNEDELELKVGDIIDINEEVEEGWWSGTLNNKLGLFPSNFVKELEVTD [K1C]	-0.232 ± 0.26
KKRQCKVLFEYIPQNEDELELKVGDDIDINEEVEEGWWSGTLNNKLGLFPSNFVKELEVTD [I26D]	-0.599 ± 0.31
KKRQCKVLFEYIPQNEDELELKVGDIIDINEEVEEGWWSGTLNNKLGLFPSNFVKELTVTD [E58T]	-0.211 ± 0.18
KKRQCKVLFEYIPQNEDELELKVGDIIDWNEEVEEGWWSGTLNNKLGLFPSNFVKELEVTD [I29W]	-0.693 ± 0.2
